Each block holds one binder with its values, some of them ahead of it.
What was measured:
Thrombin = assay: enzyme inhibition, Z-Gly-Pro-Arg-pNa substrate, tight-binding fit
Trypsin = assay: enzyme inhibition, Z-L-Lys-SBzl substrate, tight-binding fit
[1] = target: MASP-2 CCP1-CCP2-SP (human), O00187; assay: as above
Chain of MASP-2 CCP1-CCP2-SP (human), O00187 (O00187 298-686 limits assumed): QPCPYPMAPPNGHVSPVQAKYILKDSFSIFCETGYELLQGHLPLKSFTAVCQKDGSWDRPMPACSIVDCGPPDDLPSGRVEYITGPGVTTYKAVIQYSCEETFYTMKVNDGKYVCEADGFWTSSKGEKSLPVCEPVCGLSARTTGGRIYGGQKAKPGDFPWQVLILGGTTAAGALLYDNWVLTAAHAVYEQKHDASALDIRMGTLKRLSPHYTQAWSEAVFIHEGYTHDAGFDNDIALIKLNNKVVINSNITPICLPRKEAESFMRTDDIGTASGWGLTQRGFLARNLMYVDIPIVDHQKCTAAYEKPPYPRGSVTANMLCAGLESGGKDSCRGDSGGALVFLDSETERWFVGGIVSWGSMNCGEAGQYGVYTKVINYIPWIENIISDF

Chain of Trypsin (P00760 24-246): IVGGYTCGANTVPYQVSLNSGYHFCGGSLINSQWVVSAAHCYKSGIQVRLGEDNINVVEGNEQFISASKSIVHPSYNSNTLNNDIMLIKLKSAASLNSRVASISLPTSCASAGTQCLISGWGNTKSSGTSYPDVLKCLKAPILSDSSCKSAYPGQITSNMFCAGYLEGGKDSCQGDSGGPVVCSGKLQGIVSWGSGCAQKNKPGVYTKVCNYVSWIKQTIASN

Ki (Thrombin): 140 µM
B1: wild-type SFTI (Sun Flower Trypsin Inhibitor) (peptide)
peptide: GRCTKSIPPICFPD
modifications: not checked

Ki (Trypsin): 1 µM
Ki [1]: 0.18 µM
Ki (Thrombin): 550 µM
B2: M2-6E (peptide)
peptide: GYCSRSYPPVCIPD
modifications: not checked

— patent US20120214748A1, “NOVEL PEPTIDES, PROCESS FOR PREPARATION THEREOF, AND USE THEREOF” (priority 2009, published 2012)
